These results are taken from patent US20020142976.

The series concerns IDH22.

ATR, sequence (chain, as listed by the source): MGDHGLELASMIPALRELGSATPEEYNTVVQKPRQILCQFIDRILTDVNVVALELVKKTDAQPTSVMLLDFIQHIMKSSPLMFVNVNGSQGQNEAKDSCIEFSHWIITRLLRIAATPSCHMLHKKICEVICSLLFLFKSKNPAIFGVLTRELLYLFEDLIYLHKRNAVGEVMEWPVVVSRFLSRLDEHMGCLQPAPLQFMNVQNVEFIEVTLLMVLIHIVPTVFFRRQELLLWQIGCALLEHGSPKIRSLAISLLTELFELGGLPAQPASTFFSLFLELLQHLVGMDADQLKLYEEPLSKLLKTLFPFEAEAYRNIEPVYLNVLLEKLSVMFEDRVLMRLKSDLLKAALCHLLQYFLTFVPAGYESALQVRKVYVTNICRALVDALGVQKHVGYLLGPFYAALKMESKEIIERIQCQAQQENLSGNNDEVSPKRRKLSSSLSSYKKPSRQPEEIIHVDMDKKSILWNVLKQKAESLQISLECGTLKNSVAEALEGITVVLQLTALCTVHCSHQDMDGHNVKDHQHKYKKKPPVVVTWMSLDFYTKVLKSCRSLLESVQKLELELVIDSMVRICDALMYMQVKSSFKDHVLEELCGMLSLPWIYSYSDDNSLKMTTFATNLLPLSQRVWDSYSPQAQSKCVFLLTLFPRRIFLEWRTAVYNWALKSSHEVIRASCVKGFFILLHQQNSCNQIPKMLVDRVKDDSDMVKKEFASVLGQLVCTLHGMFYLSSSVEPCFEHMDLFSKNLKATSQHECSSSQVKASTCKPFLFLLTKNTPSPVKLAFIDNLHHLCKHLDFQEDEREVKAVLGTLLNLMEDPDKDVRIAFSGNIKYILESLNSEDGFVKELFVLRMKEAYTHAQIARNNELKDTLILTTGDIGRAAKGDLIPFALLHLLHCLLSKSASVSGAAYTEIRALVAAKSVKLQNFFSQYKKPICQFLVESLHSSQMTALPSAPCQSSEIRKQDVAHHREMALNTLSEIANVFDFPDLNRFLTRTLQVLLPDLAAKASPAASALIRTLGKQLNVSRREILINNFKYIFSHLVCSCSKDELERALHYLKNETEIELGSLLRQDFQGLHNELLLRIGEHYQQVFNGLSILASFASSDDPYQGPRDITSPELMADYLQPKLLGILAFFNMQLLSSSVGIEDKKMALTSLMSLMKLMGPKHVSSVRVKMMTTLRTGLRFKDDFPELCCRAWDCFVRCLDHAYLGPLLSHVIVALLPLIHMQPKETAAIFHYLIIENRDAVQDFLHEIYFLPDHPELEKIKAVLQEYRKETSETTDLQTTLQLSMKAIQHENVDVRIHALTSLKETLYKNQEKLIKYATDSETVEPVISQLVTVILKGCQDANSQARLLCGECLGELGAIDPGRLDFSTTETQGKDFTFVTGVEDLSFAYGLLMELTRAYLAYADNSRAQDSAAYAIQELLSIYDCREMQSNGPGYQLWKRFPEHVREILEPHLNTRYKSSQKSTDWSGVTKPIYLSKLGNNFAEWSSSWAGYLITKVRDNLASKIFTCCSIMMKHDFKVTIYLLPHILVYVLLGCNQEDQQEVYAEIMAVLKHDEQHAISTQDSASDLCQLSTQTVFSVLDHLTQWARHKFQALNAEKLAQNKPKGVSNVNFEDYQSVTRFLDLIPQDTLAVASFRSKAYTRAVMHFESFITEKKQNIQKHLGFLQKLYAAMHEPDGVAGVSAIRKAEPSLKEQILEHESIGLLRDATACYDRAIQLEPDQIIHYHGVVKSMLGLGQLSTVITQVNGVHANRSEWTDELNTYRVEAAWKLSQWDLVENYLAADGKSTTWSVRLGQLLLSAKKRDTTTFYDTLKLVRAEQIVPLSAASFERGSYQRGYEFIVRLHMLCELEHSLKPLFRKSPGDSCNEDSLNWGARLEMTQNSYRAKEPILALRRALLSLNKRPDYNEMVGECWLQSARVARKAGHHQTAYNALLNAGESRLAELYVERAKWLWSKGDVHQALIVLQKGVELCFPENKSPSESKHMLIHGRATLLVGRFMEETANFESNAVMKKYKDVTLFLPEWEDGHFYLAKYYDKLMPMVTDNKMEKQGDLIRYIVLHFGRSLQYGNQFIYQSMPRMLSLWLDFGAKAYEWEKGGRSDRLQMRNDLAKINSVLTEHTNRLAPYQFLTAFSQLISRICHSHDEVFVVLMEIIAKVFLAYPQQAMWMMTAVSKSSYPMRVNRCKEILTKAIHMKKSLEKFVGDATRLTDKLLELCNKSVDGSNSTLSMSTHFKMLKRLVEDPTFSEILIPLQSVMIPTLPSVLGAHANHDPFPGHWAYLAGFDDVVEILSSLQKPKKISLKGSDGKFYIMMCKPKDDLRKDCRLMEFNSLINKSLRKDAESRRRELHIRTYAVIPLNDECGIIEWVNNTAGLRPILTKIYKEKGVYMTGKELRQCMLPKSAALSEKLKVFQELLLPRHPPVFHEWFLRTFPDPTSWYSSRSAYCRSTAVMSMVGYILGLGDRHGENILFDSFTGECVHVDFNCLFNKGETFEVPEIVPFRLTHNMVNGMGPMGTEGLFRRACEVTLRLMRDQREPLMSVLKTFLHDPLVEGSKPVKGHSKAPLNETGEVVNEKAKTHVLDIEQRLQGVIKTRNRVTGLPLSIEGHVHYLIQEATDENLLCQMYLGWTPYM

Regarding ATR, the “phosphorylation of peptide substrate (32P kinase assay, plate-captured ATR)” value was “ATR phosphorylated IDH22”.
